# Entries after “also recorded” stand apart in the source; their conditions may differ. Like-named read-outs stand apart in the source and are kept apart here. Marks after values point to notes of the source that are not given here. Where a SMILES comes first, the peptide text is derived from it. The star is where a group is joined. X1 = CCc1c2c(nc3ccc(OC(=O)CCCCCN4C(=O)CC(*)C4=O)cc13)-c1cc3c(c(=O)n1C2)COC(=O)[C@]3(O)CC
# How the values were obtained:
# [1] = Stability of conjugates in citrated plasma at 37° C. (half life time, HPLC fluorescence); assay type: in vitro ADME; conditions: DPV1047-linker-SN38, 2.55 μM
# Description: The stability of the conjugates was tested in citrated plasma (10% (v/v) sodium citrate buffer, 0.106M) from different species (see Table 1 below). The conjugates at 2.55 μM were incubated at 37° C. in plasma. Samples were analysed using the HPLC fluorescence method described below (see chromatographic equipment and conditions) following TFA/acetonitrile extraction and the amount of free camptothecin, analogs or derivatives thereof (e.g. SN38) released by the conjugates was measured.
# Chromatographic equipment and conditions: 150 μL of each sample were placed in 1.5 mL micro-centrifuge tubes. 450 μL of 5% (v/v) TFA in H2O was added to each tube and the mixture was vortexed for 5 seconds. Samples were then centrifuged at 16000 g, 3 minutes at +4° C. 100 μL of supernatant were placed in 1.5 mL micro-centrifuge tubes. Methanol (100 μL) was then immediately added and vortexed for 5 seconds. Samples were then centrifuged at 16000 g, 3 minutes at room temperature. 150 μL of supernatant were recovered for HPLC analysis. Conjugates, metabolites and camptothecin derivative (i.e. SN38) were separated by high-performance liquid chromatography (HPLC; Agilent 1100 series equipped with a fluorescence detector) using a 4.6×100 mm ([…] particle size) Luna C18(2) column (Phenomenex ref. 00D-4251-E0, Le Pecq, France). The aqueous component of the mobile phase (A) was 0.1% (v/v) TFA in water. The organic modifier (B) was acetonitrile containing 0.1% (v/v) TFA. For the conjugate and its metabolites an elution gradient increasing linearly the proportion of B from 15 to 37% in 2 min, from 37 to 47% in 6 min, followed by 2 min at 90% was applied with a constant flow rate of 1.2 mL/min. The proportion of B was then returned to the initial condition for 3.0 min.
# The half life time of conjugate corresponds to the time necessary to have 50% by mole of free camptothecin, analogs or derivatives thereof released by the conjugates of the invention. In human plasma, the half life time of conjugate DPV1047-linker #1-SN38 (less than 5 mins) was shorter than that of conjugate DPV1047-linker #2-SN38 (6-7 mins), which, in turn, was shorter than that of conjugate DPV1047-linker #3-SN38 (12 mins).
# [2] = as above; assay type: in vitro ADME; conditions: dog
# How it was run: (§1)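 Conjugates at 2.55 μM incubated at 37° C in citrated plasma of several species, including human and dog. After TFA/acid extraction, released free camptothecin derivative (e.g. SN38) measured by reversed-phase C18 HPLC with fluorescence detection; half-life taken as time to 50 mol% release.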
# [3] = Pharmacokinetic study in the dog (blood, HPLC fluorescence); assay type: in vivo; conditions: dog blood; non-toxic doses (DPV1047-BCH-SN38 ≦20 mg/kg, DPV1047-MIC-SN38 ≦50 mg/kg)
# Description: Peripheral blood samples were taken at different times following infusion for pharmacokinetic analysis.
# Blood samples (2.5 mL) were collected in 5 mL in trisodium citrate tubes (Sarstedt S-Monovette® 9NC) containing 2.5 mL of 5% TFA (v/v) and vortexed for 5 seconds before storage at −80° C. (for less than two weeks).
# Samples were then analyzed after a TFA and acetonitrile extraction by an HPLC fluorescence method, described below. […] Whole blood samples were acidified with TFA to protect the ester link of the conjugate against hydrolysis and allow protein precipitation to improve conjugate and SN38 recovery.
# Five hundred microliters of each sample were then placed in 1.5 mL micro-centrifuge tubes to and centrifuged at 16000×g 3 min at +4° C. […] Methanol (100 μL) was then immediately added and the mixture stirred vigorously (vortex) for 5 seconds. Samples were then centrifuged at 16000×g, 3 min at room temperature.
# One hundred and fifty microliters of the supernatant was recovered for HPLC analysis.
# DPV1047-BCH-SN38 and its metabolite SN38 were separated by high-performance liquid chromatography (HPLC Agilent 1100 with a fluorescence detector) using the following method: […]
# [4] = Stability of conjugates in citrated plasma at 37° C. (half life time, HPLC fluorescence); assay type: in vitro ADME, human; conditions: human, plasma
# How it was run: as §1
# [5] = Toxicity study in the beagle dog following intravenous infusion
# Description: Adult female and male beagle dogs were individually housed with free access to tap water. A pellet diet was distributed daily.
# Dogs (1 dog for each drug and dose) were infused intravenously through the cephalic or saphenous vein. These intravenous infusions were made using a single-use catheter (Intraflon®) and a plastic syringe connected to a syringe pump. During the injection, the animals were restrained in a hammock.
# Conjugates were dissolved in water for injection (10% of final volume) and diluted with 0.9% NaCl to their final concentration. The volume administered to each animal was adjusted according to body weight.
# Clinical signs, hematological and intestinal toxicities were monitored during a period of 15 days after infusion. Each animal was checked at least twice a day for mortality or signs of morbidity.
# The body weight of each animal was recorded on the day −1, 4, 10 and 13.
# Peripheral blood samples were taken into EDTA tubes for the determination of following parameters on days −1, 5, 11 and 14: erythrocytes, hemoglobin, mean cell volume, packed cell volume, mean cell hemoglobin concentration, mean cell hemoglobin, thrombocytes, leucocytes, differential white cell count with cell morphology.
# [6] = test system: HCT 116 human epithelial colon carcinoma cells; test: cells; assay type: cell-based; conditions: Table 11; 48-h continuous exposure; mean of three independent experiments; read-out: Drug concentration that inhibits 50% of cell viability (IC50), HCT 116
# Description: (§2) Cytotoxic evaluation was performed by seeded cells for 24 h prior to the addition of the therapeutic compound. Cells were incubated for 48 h (37° C.) with different dilutions of the therapeutic compound. Cell viability was then assessed using the WST-1 assay (Roche). The results are expressed as mean cytotoxic concentrations (IC50 value or molar concentration that inhibits 50% of cell viability) that were estimated from sigmoid regression, using Graph Pad Prism 3.02 software.
# HCT 116 (ATCC #: CCL-247): human epithelial colon carcinoma cells. Cells were cultured in Mc Coy's 5a medium+1.5 mM L-glutamine and 10% fetal bovine serum. Cells were plated at a density of 8000 cells/well in 96-well plates.
# [7] = test system: NCI-H460 human epithelial lung carcinoma cells; test: In vitro cytotoxicity (WST-1 cell viability); assay type: cell-based; conditions: Table 11; 48-h continuous exposure; mean of three independent experiments; read-out: Drug concentration that inhibits 50% of cell viability (IC50), NCI-H460
# Description: as §2
# NCI-H460 (ATCC#: HTB-177): human epithelial lung carcinoma cells. Cells were cultured in RPMI 1640+glutamax and 10% of fetal bovine serum. Cells were plated at a density of 10,000 cells/well in 96-well plates.
# [8] = background statement; cited from earlier work
# [9] = dog; F. Lavelle et al., Seminar in Oncology (1996); cited from earlier work
# [10] = test system: HCT 116 human colorectal carcinoma tumor
# physchem = conditions: water
# [11] = M. Horikawa, Pharmaceutical Res. 2002; cited from earlier work
# [12] = In vitro human serum stability study; assay type: in vitro ADME
# Description: Peptidic drug delivery systems have also been described in PCT patent application published under No WO 00/01417 filed by […] aiming to facilitate the delivery of different drugs, such as the 10-Hydroxycamptothecin. This patent application describes the use of homeobox peptide derived from the Drosophila antennapedia homoprotein (preferably a cell-penetrating peptide (CPP) named penetratin) for conjugation to a number of cytotoxic drugs, thus enhancing their delivery and/or therapeutic effect. […] Consequently the applicant has performed in vitro human serum stability studies using the conjugate described in example 29 of this patent application No WO 00/01417.
compound,measurement,setting,value
CCc1c2c(nc3ccc(OC(=O)CCCCCN4C(=O)CC(SC[C@H](N)C(=O)N[C@H](C(=O)N[C@@H](CCCCN)C(=O)N[C@@H](CCCNC(=N)N)C(=O)NCC(=O)N[C@@H](CC(C)C)C(=O)N[C@@H](CCCCN)C(=O)N[C@@H](CC(C)C)C(=O)N[C@@H](CCCNC(=N)N)C(=O)N[C@@H](Cc5c[nH]cn5)C(=O)N[C@H](C(=O)N[C@@H](CCCNC(=N)N)C(=O)N5CCC[C@H]5C(=O)N[C@@H](CCCNC(=N)N)C(=O)N[C@H](C(=O)N[C@H](C(=O)N[C@@H](CCCNC(=N)N)C(=O)N[C@@H](CCSC)C(=O)N[C@@H](CC(=O)O)C(=O)N[C@H](C(=O)O)C(C)C)[C@@H](C)O)C(C)C)C(C)C)C(C)C)C4=O)cc13)-c1cc3c(c(=O)n1C2)COC(=O)[C@]3(O)CC (stereo partly shown) [DPV1047-MIC-SN38] (H-C(X1)VKRGLKLRHVRPRVTRMDV-OH),half-life,"[1]; time to 50% by mole free SN38 released, read-out: Half life time, Mouse plasma",< 3 min
same,half-life,[1]; monkey,8 min
same,half-life,[1]; rat,3 min
same,half-life,"[2]; DPV1047-linker-SN38, 2.55 μM, citrated plasma, read-out: Half life time, Dog plasma",36 min
same,SN38 Cmax and AUC versus dose of the conjugate,[3],increased linearly with the dose
same,half-life,"[4]; DPV1047-linker-SN38, 2.55 μM, citrated plasma, read-out: Half life time, Human plasma",6 to 7 min
same,MTD as mg equivalent of SN38,"[5]; beagle dog, i.v. infusion",6.5-9.1 mg equivalent of SN38
same,WBC depletion,"[5]; dog, 70 mg/kg",94%
same,signs of toxicity,"[5]; dog, 70 mg/kg","gastro-intestinal toxicity, diarrhea and emesis"
same,Reduction in WBC at D5 (%),"[5]; dog, i.v. infusion, 10 mg/kg",−44%
same,Toxic signs Day 1,"[5]; dog, i.v. infusion, 10 mg/kg",None
same,Toxic signs Following Days,"[5]; dog, i.v. infusion, 10 mg/kg",None
same,Reduction in WBC at D5 (%),"[5]; dog, i.v. infusion, 20 mg/kg",−57%
same,Toxic signs Day 1,"[5]; dog, i.v. infusion, 20 mg/kg",None
same,Toxic signs Following Days,"[5]; dog, i.v. infusion, 20 mg/kg",None
same,Reduction in WBC at D5 (%),"[5]; dog, i.v. infusion, 40 mg/kg",−69%
same,Toxic signs Day 1,"[5]; dog, i.v. infusion, 40 mg/kg",None
same,Toxic signs Following Days,"[5]; dog, i.v. infusion, 40 mg/kg",None
same,Reduction in WBC at D5 (%),"[5]; dog, i.v. infusion, 50 mg/kg",−53%
same,Toxic signs Day 1,"[5]; dog, i.v. infusion, 50 mg/kg",None
same,Toxic signs Following Days,"[5]; dog, i.v. infusion, 50 mg/kg",None
same,Reduction in WBC at D5 (%),"[5]; dog, i.v. infusion, 70 mg/kg",−94%
same,Toxic signs Day 1,"[5]; dog, i.v. infusion, 70 mg/kg",Vomit
same,Toxic signs Following Days,"[5]; dog, i.v. infusion, 70 mg/kg",Liquid feces D4
same,MTD,"[5]; dog, in vivo, iv",50 to 70 mg/kg
same,clinical signs,"[5]; dogs, 10, 20, 40 and 50 mg/kg",no clinical signs
"CCc1c2c(nc3ccc(O)cc13)-c1cc3c(c(=O)n1C2)COC(=O)[C@]3(O)CC [SN38, 7-ethyl-10-hydroxy-camptothecin, reference compound]",IC50,[6],7 nM
same,solubility in water,Solubility in water,≤ 5 µg/mL
same,IC50,[7],22 nM
same,fold more active than irinotecan as an anti-proliferative agent,[8],at least 2000 fold
"CCc1c2c(nc3ccc(OC(=O)N4CCC(N5CCCCC5)CC4)cc13)-c1cc3c(c(=O)n1C2)COC(=O)[C@]3(O)CC [irinotecan, reference compound]",Maximal Tolerated Dose (MTD),[9],30 mg/kg
same,TGI (100-T/C %),"[10]; Table 5, Q1D5, 18 (cumulative 90) μmol/kg",90*** %
same,Minimal T/C (%),[10]; iv,10%
same,solubility,physchem,≤ 2500 µg/mL
same,excreted into bile,[11],> 26%
same,body weight loss,"[5]; dog, 30 mg/kg, 20 min infusion",−8.5%
same,white blood cells depletion,"[5]; dog, 30 mg/kg, Day 5",92%
same,Reduction in WBC at D5 (%),"[5]; dog, i.v. infusion, 30 mg/kg",−92%
same,Toxic signs Day 1,"[5]; dog, i.v. infusion, 30 mg/kg",Ptyalism; also recorded: Liquid feces; also recorded: Vomit; also recorded: Loss of balance; also recorded: Tremors (marked)
same,Toxic signs Following Days,"[5]; dog, i.v. infusion, 30 mg/kg",Vomit: D4
CC[C@H](C)[C@H](NC(=O)[C@H](CCCCN)NC(=O)[C@@H](NC(=O)[C@H](CCC(N)=O)NC(=O)[C@H](CCCNC(=N)N)NC(=O)[C@@H](N)CSC1CC(=O)N(CCC(=O)Oc2ccc3nc4c(cc3c2)Cn2c-4cc3c(c2=O)COC(=O)[C@]3(O)CC)C1=O)[C@@H](C)CC)C(=O)N[C@@H](Cc1c[nH]c2ccccc12)C(=O)N[C@@H](Cc1ccccc1)C(=O)N[C@@H](CCC(N)=O)C(=O)N[C@@H](CC(N)=O)C(=O)N[C@@H](CCCNC(=N)N)C(=O)N[C@@H](CCCNC(=N)N)C(=O)N[C@@H](CCSC)C(=O)N[C@@H](CCCCN)C(=O)N[C@@H](Cc1c[nH]c2ccccc12)C(=O)N[C@@H](CCCCN)C(=O)N[C@@H](CCCCN)C(=O)O (stereo partly shown) [reference compound],half life time (stability) in human serum,[12],less than three
same,half-life,"[2]; Table 14, 10-Hydroxycamptothecin conjugates, read-out: Dog Plasma Half life time",6 min
same,half-life,"[4]; Table 14, 10-Hydroxycamptothecin conjugates, read-out: Human Plasma Half life time",< 3 min

# — patent publication US8410045B2, “Camptothecin-peptide conjugates and pharmaceutical compositions containing the same” (Drais Pharmaceuticals, Inc., priority 2006, dated 2013)
